For this data set, the target named is H1.2 2-108 (UniProt P16403 2-108). Description: fluorescence polarization.
H1.2 2-108, sequence (P16403 2-108): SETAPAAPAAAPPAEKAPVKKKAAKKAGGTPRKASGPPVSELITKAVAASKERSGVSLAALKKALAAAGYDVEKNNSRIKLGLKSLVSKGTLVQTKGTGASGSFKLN

B1: fluorescein-labeled 30-mer DNA (printed strands are 27 nt) (dsDNA)
DNA 1: ATCATTAATATGAATTCGCCACATGCA
DNA 2: TGCATGTGGCGAATTCATATTAATGAT
Take B1: the binding signal is 50 fold lower affinity than full-length H1.2.

Source of the values: publication doi:10.1101/2022.02.17.480967.
